Drawing on patent US20150158933A1, this text covers MFI for one substance.

In this experiment the target is natural VIF protein on the surface of T1 human cells infected with HIV-1 strain IIIB (HIV-1 strain IIIB) (UniProt P69723). In words: flow cytometry on HIV-1 IIIB infected T1 cells, 1:100.
Sequence of UniProt P69723 (P69723 whole entry): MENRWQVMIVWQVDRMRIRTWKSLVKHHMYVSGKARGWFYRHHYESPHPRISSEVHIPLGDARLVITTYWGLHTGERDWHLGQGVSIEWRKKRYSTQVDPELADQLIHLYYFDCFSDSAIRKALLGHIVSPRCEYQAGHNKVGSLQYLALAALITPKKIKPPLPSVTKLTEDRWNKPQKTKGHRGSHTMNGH

Isotype control (antibody) showed an MFI of 971.
